Test results from article PMC7311520, “β-carboline chemical signals induce reveromycin production through a LuxR family regulator in Streptomyces sp. SN-593” (Scientific Reports, 2020).

Experiments:
[1] = molecular target: T1, RevU (LuxR family transcriptional regulator) (Actinacidiphila reveromycinica, UniProt G1UDV5); test: SPR (Biacore T200, His6-RevU immobilized on NTA chip); supported by BR-1 bead pull-down with free BR-1 competition; format: binding
T1 construct: purified His6-tagged RevU expressed in E. coli from a codon-optimized synthetic gene

[2] = molecular target: T2, RevU (LuxR family regulator), His6-tagged (Streptomyces sp. SN-593 (S. …, UniProt G1UDV5)); test: SPR; compound 3 (tetrahydro BR-1), 125 nM RevU; not enhanced; SPR: 10 mM HEPES pH 7.4, 3 mM EDTA, 150 mM NaCl, 0.05% Tween-20, 25 C, RevU 3.9-250 nM; BLI: 10 mM HEPES pH 7.3, 3 mM EDTA, 150 mM NaCl, 0.05% Tween-20, room temperature; details: protein: recombinant; tags: His6 (pColdI); chain copies: 2; label: 5'-biotin; blunt
T2 sequence: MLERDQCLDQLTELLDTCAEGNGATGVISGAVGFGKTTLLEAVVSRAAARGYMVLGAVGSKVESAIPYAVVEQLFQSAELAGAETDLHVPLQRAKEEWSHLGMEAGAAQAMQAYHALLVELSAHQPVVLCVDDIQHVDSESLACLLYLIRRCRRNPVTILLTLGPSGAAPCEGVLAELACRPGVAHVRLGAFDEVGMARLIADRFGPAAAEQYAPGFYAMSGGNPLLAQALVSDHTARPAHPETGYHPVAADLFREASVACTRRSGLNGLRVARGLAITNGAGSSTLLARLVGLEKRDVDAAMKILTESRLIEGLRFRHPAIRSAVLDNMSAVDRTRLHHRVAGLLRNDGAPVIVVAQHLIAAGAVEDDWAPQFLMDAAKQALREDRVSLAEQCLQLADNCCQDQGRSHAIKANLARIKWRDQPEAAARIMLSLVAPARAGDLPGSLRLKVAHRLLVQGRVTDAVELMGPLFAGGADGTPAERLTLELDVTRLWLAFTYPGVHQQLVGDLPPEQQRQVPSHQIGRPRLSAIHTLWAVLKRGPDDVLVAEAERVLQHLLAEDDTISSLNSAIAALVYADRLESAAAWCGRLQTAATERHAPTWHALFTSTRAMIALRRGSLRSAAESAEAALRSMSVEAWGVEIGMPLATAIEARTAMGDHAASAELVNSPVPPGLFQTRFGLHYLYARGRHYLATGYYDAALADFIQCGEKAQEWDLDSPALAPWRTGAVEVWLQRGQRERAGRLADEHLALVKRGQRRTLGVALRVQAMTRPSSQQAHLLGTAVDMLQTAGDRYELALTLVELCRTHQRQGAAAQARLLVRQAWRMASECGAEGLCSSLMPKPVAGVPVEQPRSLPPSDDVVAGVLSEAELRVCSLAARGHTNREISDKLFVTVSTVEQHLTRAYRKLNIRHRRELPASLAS

[3] = molecular target: T2, RevU (LuxR family regulator), …; test: SPR; no BR-1; SPR: 10 mM HEPES pH 7.4, 3 mM EDTA, 150 mM NaCl, 0.05% Tween-20, 25 C, RevU 3.9-250 nM; BLI: 10 mM HEPES pH 7.3, 3 mM EDTA, 150 mM NaCl, 0.05% Tween-20, room temperature; details: protein: recombinant; tags: His6 (pColdI); chain copies: 2; label: 5'-biotin; blunt

Question: How did the Kd [1] turn out when `NC(=O)c1cc2c([nH]c3ccccc32)c(-c2ccccc2)n1` [compound 1, BR-1] was run?
Answer: 1.31 µM

B1: Fragment 1-1 (dsDNA)
DNA 1: ACGCCGCAACGACCAACAGAGG
DNA 2: CCTCTGTTGGTCGTTGCGGCGT
Question: Does B1 bind [2]?
Answer: binds

B2: Fragment 4 (dsDNA)
DNA 1: GATTATGCGTCGCATTCGGTGTTTGTGGAGTTGATCGAGGATCGGGTTCT
DNA 2: AGAACCCGATCCTCGATCAACTCCACAAACACCGAATGCGACGCATAATC
Question: Does B2 bind [3]?
Answer: binds
